For 94 variants, protein stability index results are on record in the supplement of paper PMC10567573.

Sequences and labels used below:
B1: SMOC2 (parent)
chain: DCAGSPQKPLCASDGRTFLSRCEF
B2: TRIM43 (parent)
chain: NNSWIRKNSTMVNSEDIFLLLCLK
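Note: lentivirally expressed fusions sorted by FACS into six bins by GFP to DsRed ratio, PSI derived from sequencing read proportions per bin multiplied by bin number.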

The first series covers variants of B1. As to the kind of experiment: protein stability index of a GFP-peptide fusion (GPS, HEK-293T) (PSI 1-6); higher = more stable. Particulars: c terminus: a fixed tail appended.
With PCAGSPQKPLCASDGRTFLSRCEF [D1P], the protein stability index was 2.66.

Turning to YCAGSPQKPLCASDGRTFLSRCEF [D1Y], the protein stability index is 1.72.

Consider TCAGSPQKPLCASDGRTFLSRCEF [D1T], for which the protein stability index is 2.59.

LCAGSPQKPLCASDGRTFLSRCEF [D1L]: the protein stability index was 2.85.

Turning to VCAGSPQKPLCASDGRTFLSRCEF [D1V], the protein stability index is 2.35.

In the case of NCAGSPQKPLCASDGRTFLSRCEF [D1N], the protein stability index was found to be 2.2.

For the variant MCAGSPQKPLCASDGRTFLSRCEF [D1M], the protein stability index came to 1.7.

Regarding ECAGSPQKPLCASDGRTFLSRCEF [D1E], the protein stability index was found to be 3.69.

Take GCAGSPQKPLCASDGRTFLSRCEF [D1G]: the protein stability index is 2.38.

On to FCAGSPQKPLCASDGRTFLSRCEF [D1F], for which the protein stability index was 1.5.

Consider RCAGSPQKPLCASDGRTFLSRCEF [D1R], for which the protein stability index stood at 1.55.

Consider ICAGSPQKPLCASDGRTFLSRCEF [D1I], for which the protein stability index was found to be 2.92.

Regarding ACAGSPQKPLCASDGRTFLSRCEF [D1A], the protein stability index worked out at 1.89.

Consider SCAGSPQKPLCASDGRTFLSRCEF [D1S], for which the protein stability index was determined as 1.93.

As for KCAGSPQKPLCASDGRTFLSRCEF [D1K], the protein stability index was found to be 2.59.

Consider HCAGSPQKPLCASDGRTFLSRCEF [D1H], for which the protein stability index amounted to 2.02.

Turning to DNAGSPQKPLCASDGRTFLSRCEF [C2N], the protein stability index is 2.81.

As to DGAGSPQKPLCASDGRTFLSRCEF [C2G], the protein stability index worked out at 3.66.

Turning to DKAGSPQKPLCASDGRTFLSRCEF [C2K], the protein stability index came out at 3.03.

As for DHAGSPQKPLCASDGRTFLSRCEF [C2H], the protein stability index is 3.36.

For the variant DYAGSPQKPLCASDGRTFLSRCEF [C2Y], the protein stability index is 2.63.

As for DIAGSPQKPLCASDGRTFLSRCEF [C2I], the protein stability index came to 2.25.

Regarding DVAGSPQKPLCASDGRTFLSRCEF [C2V], the protein stability index worked out at 2.58.

Regarding DEAGSPQKPLCASDGRTFLSRCEF [C2E], the protein stability index was 3.84.

Take DPAGSPQKPLCASDGRTFLSRCEF [C2P]: the protein stability index was 3.4.

For the variant DSAGSPQKPLCASDGRTFLSRCEF [C2S], the protein stability index turned out to be 2.18.

In the case of DQAGSPQKPLCASDGRTFLSRCEF [C2Q], the protein stability index came out at 3.12.

For the variant DWAGSPQKPLCASDGRTFLSRCEF [C2W], the protein stability index came out at 2.23.

For DDAGSPQKPLCASDGRTFLSRCEF [C2D], the protein stability index is 3.44.

On to DMAGSPQKPLCASDGRTFLSRCEF [C2M], for which the protein stability index turned out to be 2.86.

As to DTAGSPQKPLCASDGRTFLSRCEF [C2T], the protein stability index was 3.5.

Turning to DFAGSPQKPLCASDGRTFLSRCEF [C2F], the protein stability index is 3.25.

Regarding DAAGSPQKPLCASDGRTFLSRCEF [C2A], the protein stability index was 2.79.

In the case of DRAGSPQKPLCASDGRTFLSRCEF [C2R], the protein stability index was 3.19.

Consider DCHGSPQKPLCASDGRTFLSRCEF [A3H], for which the protein stability index came to 2.29.

With DCIGSPQKPLCASDGRTFLSRCEF [A3I], the protein stability index worked out at 2.71.

Turning to DCEGSPQKPLCASDGRTFLSRCEF [A3E], the protein stability index was determined as 3.01.

On to DCFGSPQKPLCASDGRTFLSRCEF [A3F], for which the protein stability index amounted to 3.16.

In the case of DCDGSPQKPLCASDGRTFLSRCEF [A3D], the protein stability index was 2.95.

Variants of B2 are the subject of another series. The description is as above. Particulars: c terminus: a fixed tail appended.
NNSWIRKNSTMVNSEDIFLLLWLK [C22W]: the protein stability index turned out to be 2.66.

Take NNSWIRKNSTMVNSEDIFLLLNLK [C22N]: the protein stability index amounted to 2.32.

For the variant NNSWIRKNSTMVNSEDIFLLLRLK [C22R], the protein stability index worked out at 1.91.

In the case of NNSWIRKNSTMVNSEDIFLLLALK [C22A], the protein stability index is 1.91.

As for NNSWIRKNSTMVNSEDIFLLLSLK [C22S], the protein stability index turned out to be 2.72.

Regarding NNSWIRKNSTMVNSEDIFLLLHLK [C22H], the protein stability index was 2.62.

NNSWIRKNSTMVNSEDIFLLLMLK [C22M]: the protein stability index was determined as 2.61.

In the case of NNSWIRKNSTMVNSEDIFLLLPLK [C22P], the protein stability index turned out to be 2.44.

Consider NNSWIRKNSTMVNSEDIFLLLYLK [C22Y], for which the protein stability index came to 3.36.

With NNSNIRKNSTMVNSEDIFLLLCLK [W4N], the protein stability index turned out to be 2.4.

As for NNSIIRKNSTMVNSEDIFLLLCLK [W4I], the protein stability index was 1.99.

Regarding NNSQIRKNSTMVNSEDIFLLLCLK [W4Q], the protein stability index is 2.62.

Consider NNSLIRKNSTMVNSEDIFLLLCLK [W4L], for which the protein stability index was 1.6.

Regarding NNSRIRKNSTMVNSEDIFLLLCLK [W4R], the protein stability index was 3.35.

Take NNSSIRKNSTMVNSEDIFLLLCLK [W4S]: the protein stability index worked out at 3.31.

Regarding NNSWIRKNSTMVNSEDIFRLLCLK [L19R], the protein stability index was 1.7.

For the variant NNSWIRKNSTMVNSEDIFVLLCLK [L19V], the protein stability index was found to be 3.1.

For the variant NNSWIRKNSTMVNSEDIFPLLCLK [L19P], the protein stability index came out at 1.95.

In the case of NNSWIRKNSTMVNSEDIFDLLCLK [L19D], the protein stability index worked out at 2.01.

For NNSWIRKNSTMVNSEDIFMLLCLK [L19M], the protein stability index was 2.08.

For the variant NNSWIRKNSTMVNSEDIFHLLCLK [L19H], the protein stability index worked out at 1.7.

As for NNSWIRKNVTMVNSEDIFLLLCLK [S9V], the protein stability index is 2.19.

Take NNSWIRKNTTMVNSEDIFLLLCLK [S9T]: the protein stability index was found to be 2.62.

As for NNSWIRKNWTMVNSEDIFLLLCLK [S9W], the protein stability index turned out to be 4.39.

NNSWIRKNFTMVNSEDIFLLLCLK [S9F]: the protein stability index was 2.03.

For the variant NNSWIRKNMTMVNSEDIFLLLCLK [S9M], the protein stability index was 2.34.

As for NNSWIRKNNTMVNSEDIFLLLCLK [S9N], the protein stability index is 2.49.

Turning to NNSWIRKNRTMVNSEDIFLLLCLK [S9R], the protein stability index is 2.62.

Turning to NNSWIRKNLTMVNSEDIFLLLCLK [S9L], the protein stability index stood at 3.2.

In the case of NNSWIRKNGTMVNSEDIFLLLCLK [S9G], the protein stability index was 2.66.

As to NNSWIRKNETMVNSEDIFLLLCLK [S9E], the protein stability index is 2.68.

As for NNSWIRKNSTMVNSEDIFLYLCLK [L20Y], the protein stability index was found to be 2.75.

As to NNSWIRKNSTMVNSEDIFLCLCLK [L20C], the protein stability index is 2.25.

Regarding NNSWIRKNSTMVNSEDIFLALCLK [L20A], the protein stability index was found to be 2.14.

Turning to NNSWIRKNSTMVNSEDIFLGLCLK [L20G], the protein stability index was 1.48.

For the variant NNSWIRKNSTMVNSEDIFLSLCLK [L20S], the protein stability index is 2.28.

As to NNSWIRKNSTMVNSEDIFLKLCLK [L20K], the protein stability index amounted to 2.36.

With NNSWIRKNSTMVNSEDIFLTLCLK [L20T], the protein stability index was found to be 2.72.

For NNAWIRKNSTMVNSEDIFLLLCLK [S3A], the protein stability index is 3.59.

Take NNKWIRKNSTMVNSEDIFLLLCLK [S3K]: the protein stability index amounted to 2.5.

As for NNHWIRKNSTMVNSEDIFLLLCLK [S3H], the protein stability index worked out at 2.64.

For the variant NNCWIRKNSTMVNSEDIFLLLCLK [S3C], the protein stability index was determined as 3.41.

NNNWIRKNSTMVNSEDIFLLLCLK [S3N]: the protein stability index was found to be 2.48.

Take NNEWIRKNSTMVNSEDIFLLLCLK [S3E]: the protein stability index was 3.25.

For the variant NNPWIRKNSTMVNSEDIFLLLCLK [S3P], the protein stability index stood at 2.4.

NNFWIRKNSTMVNSEDIFLLLCLK [S3F]: the protein stability index was determined as 1.95.

Turning to NNSWIRKNSTCVNSEDIFLLLCLK [M11C], the protein stability index worked out at 2.06.

Consider NNSWIRKNSTQVNSEDIFLLLCLK [M11Q], for which the protein stability index stood at 3.54.

For NNSWIRKNSTWVNSEDIFLLLCLK [M11W], the protein stability index came to 2.44.

For NNSWIRKNSTDVNSEDIFLLLCLK [M11D], the protein stability index amounted to 2.95.

For NNSWIRKNSTPVNSEDIFLLLCLK [M11P], the protein stability index amounted to 2.15.

Regarding NNSWIRKNSTTVNSEDIFLLLCLK [M11T], the protein stability index was determined as 3.06.

As to MNSWIRKNSTMVNSEDIFLLLCLK [N1M], the protein stability index stood at 2.72.

Take SNSWIRKNSTMVNSEDIFLLLCLK [N1S]: the protein stability index was determined as 2.39.

Turning to ENSWIRKNSTMVNSEDIFLLLCLK [N1E], the protein stability index came out at 4.19.
